Changes are numbered by the printed parent chain. In names and notes the source's numbering stands. Blank lines part the entries; values can stand above or below the binder they belong to.
Columns and labels:
[1] = target: TGF-β type II receptor (TβRII) on HEK-293 CAGA-Luc TGF-β reporter cells (UniProt P37173 23-567, limits assumed); assay: cell-based or functional assay
[2] = target: T1, TGF-β type II receptor (TβRII) (UniProt P37173 38-159); assay: ITC, TβRII injected into the monomer, three replicates globally fit to a 1:1 model
T1 construct: A purified protein was injected in ITC and run on native gels; also called TbRII; transforming growth factor-β type II receptor
From the text: (§1) FIG. 5: Binding of the engineered TGF-beta monomers (mmTGF-β2-7M, left; mmTGF-β2-7M2R, middle; and mmTGF-β2-2M-Del7-16, right) to the TGF-β type II receptor (TβRII) as detected by isothermal titration calorimetry (ITC). Upper panels depict the raw thermograms for three replicate titrations, while the lower panels depict the integrated heat (data points) for the three replicate titrations globally fit to a 1:1 binding isotherm (smooth line).
(§2) In order to evaluate the ability of the mmTGF-β2-7M variants described herein (mmTGF-β2-7M2R (SEQ ID NO: 4), mmTGF-β2-2M-Del7-16 (SEQ ID NO: 5), and mmTGF-β2-7M-PRDC (SEQ ID NO: 7)) to bind TβRII, isothermal titration calorimetry (ITC) and native gels were used. The ITC binding experiments were performed by injecting increasing amounts of TβRII into mmTGF-β2-7M2R (SEQ ID NO: 4) or mmTGF-β2-2M-Del7-16 (SEQ ID NO: 5), with mmTGF-β2-7M (SEQ ID NO: 3) used a reference control. These titrations yielded readily detectable isotherms with a large negative enthalpy and a near 1:1 binding stoichiometry (FIG. 5).

[3] = target: T1, TGF-β type II receptor (TβRII); assay: ITC; TβRII injected into the monomer; three replicate titrations globally fit to a 1:1 binding isotherm
From the text: as §1, §2

T1 sequence (P37173 38-159 limits assumed): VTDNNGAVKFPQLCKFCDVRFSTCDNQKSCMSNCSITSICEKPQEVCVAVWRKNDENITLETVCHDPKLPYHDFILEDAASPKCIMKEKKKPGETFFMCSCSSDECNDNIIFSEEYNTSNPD
Chain of TGF-β type II receptor (TβRII) on HEK-293 CAGA-Luc TGF-β reporter cells (P37173 23-567 limits assumed): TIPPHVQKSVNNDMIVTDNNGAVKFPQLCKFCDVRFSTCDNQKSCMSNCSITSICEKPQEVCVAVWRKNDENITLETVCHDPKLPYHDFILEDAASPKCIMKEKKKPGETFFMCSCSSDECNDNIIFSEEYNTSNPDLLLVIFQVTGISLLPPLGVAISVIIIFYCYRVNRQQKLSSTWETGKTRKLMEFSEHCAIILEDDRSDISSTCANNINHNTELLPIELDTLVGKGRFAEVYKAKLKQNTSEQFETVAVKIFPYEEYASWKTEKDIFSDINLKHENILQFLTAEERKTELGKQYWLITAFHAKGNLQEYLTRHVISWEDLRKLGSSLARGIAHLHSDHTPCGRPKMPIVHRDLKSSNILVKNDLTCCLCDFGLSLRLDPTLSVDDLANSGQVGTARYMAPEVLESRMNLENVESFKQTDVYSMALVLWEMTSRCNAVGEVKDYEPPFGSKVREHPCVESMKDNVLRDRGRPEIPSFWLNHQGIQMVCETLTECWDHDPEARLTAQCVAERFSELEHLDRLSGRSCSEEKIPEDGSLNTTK

B1: mmTGF-β2-7M (ligand)
chain: ALDAAYCFRNVQDNCCLRPLYIDFRKDLGWKWIHEPKGYNANFCAGACPYRASKSPSCVSQDLEPLTIVYYVGRKPKVEQLSNMIVKSCKCS
notes: also called engineered human TGF-β2 monomer mmTGF-β2-7M; mmTGF-B27M
IC50, HEK-293 CAGA-Luc TGF-β reporter assay, stimulation with 10 pM TGF-β3 [1]: 58.2 nM | Kd [2]: 60.5 nM | ΔG [3]: -9.85 kcal/mol | ΔH [3]: -4.63 kcal/mol | ΔS [3]: 17.5 cal/mol•K

B4: mmTGF-β2-7M-PRDC (ligand)
chain: KEVLASSQEALVVTERKYLKSDWCKLRPLYIDFRKDLGWKWIHEPKGYNANFCYGQCNSFYIPRHVKKEEDSFQSSAFCVSQDLEPLTIVYYVGRKPKVEQLSNMIVKSCRCMSV
IC50, HEK-293 CAGA-Luc TGF-β reporter assay, stimulation with 10 pM TGF-β3 [1]: 282 nM | fold change of IC50 relative to mmTGF-β2-7M, HEK-293 CAGA-Luc TGF-β reporter assay [1]: ~5 fold

Other lines, results leading:

IC50, HEK-293 CAGA-Luc TGF-β reporter assay, stimulation with 10 pM TGF-β3 [1]: 53.3 nM | Kd [2]: 75.1 nM | ΔG [3]: -10.1 kcal/mol | ΔH [3]: -10.5 kcal/mol | ΔS [3]: -1.44 cal/mol•K
B2: mmTGF-β2-7M2R (ligand)
chain: B1 chain with S57R, V59R

IC50, HEK-293 CAGA-Luc TGF-β reporter assay, stimulation with 10 pM TGF-β3 [1]: 111 nM | Kd [2]: 80.1 nM | ΔG [3]: -10 kcal/mol | ΔH [3]: -7.67 kcal/mol
B3: mmTGF-β2-2M-Del7-16 (ligand)
chain: B1 chain with C7V, C16A, K26R, V69L, V72I, K75T, V78I

— patent publication US20240425559A1 (UNIVERSITY OF PITTSBURGH OF THE COMMONWEALTH SYSTEM OF …, published 2024)
